Source: US20250074980A1 (BRIGHAM AND WOMEN S HOSPITAL, published 2025)

Columns and labels:
His-tagged CEACAM1 [1] = target: T1, His-tagged CEACAM1 (human, UniProt P13688 35-428); experiment: SPR single-cycle, IgG captured
T1 construct: 45 kDa SPR analyte; also called CEACAM1-HIS; CEACAM1 analyte
T1 sequence: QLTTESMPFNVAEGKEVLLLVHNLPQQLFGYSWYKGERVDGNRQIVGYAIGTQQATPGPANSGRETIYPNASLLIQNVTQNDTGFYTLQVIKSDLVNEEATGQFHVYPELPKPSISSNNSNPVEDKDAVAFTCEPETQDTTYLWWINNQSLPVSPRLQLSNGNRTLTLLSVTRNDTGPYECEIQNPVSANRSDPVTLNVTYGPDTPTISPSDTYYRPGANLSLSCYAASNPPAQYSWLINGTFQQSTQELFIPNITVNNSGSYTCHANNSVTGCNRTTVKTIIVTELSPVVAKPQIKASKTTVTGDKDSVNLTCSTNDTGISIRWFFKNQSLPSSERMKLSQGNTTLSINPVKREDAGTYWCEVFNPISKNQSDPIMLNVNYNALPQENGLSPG
Experimental: As an alternative approach to assess the binding of the 36 antibody combinations and the three control antibodies to CEACAM1, a kinetic analysis was performed on a Biacore T200 (serial no. 1909913) running Biacore T200 Evaluation Software V2.0.1 (Uppsala, Sweden). All experiments were run at 25° C. with HBS-P+ running buffer (pH 7.4) (GE Healthcare, cat. no. BR100671). All kinetic experiments were performed using His-tagged CEACAM1 as the analyte. For all experiments, antibodies were immobilized onto a Series S Protein A sensor chip surface. For kinetic experiments, the amount of immobilized/captured ligand was limited to avoid mass transfer effects at the surface of the chip with the surface ideally having an analyte binding level (Rₘₐₓ) of 50-150 RUs. Using a MW of 45 kDa for the CEACAM1 analyte, 150 kDa for the antibody ligand (estimated value for IgG), 50 RU for Rmax and the stoichiometry (Sm) as 2 due to the ability of each antibody to bind 2 target molecules, a target response level of ˜75 RUs was set for capture of all the sample antibodies.
Single cycle analysis of the 36 antibody combinations and the three control antibodies was performed on purified antibodies (Vκ1 to Vκ6 variants) or on the supernatants of the transiently transfected HEK EBNA cells (Vκ7 to Vκ12 variants). In some instances, where supernatant was not available, purified chimeric antibody VH0/Vκ0 was spiked into HEK EBNA culture medium to use as a positive control. Antibodies were diluted in HBS-P+ to a concentration of 1 μg/ml (as determined by an IgG quantitation ELISA). At the start of each cycle, antibodies were loaded onto Fc2, Fc3 and Fc4 of a protein A chip and IgG captured at a flow rate of 8 μl/min to give an RU of ˜75. The surface was then allowed to stabilize. Single cycle kinetic data was obtained at a flow rate of 50 μl/min to minimize any potential mass transfer effects. Multiple repeats of the chimeric antibody VH0/Vκ0 were performed to check the stability of the surface and analyte over the kinetic cycles. The signal from the reference channel Fc1 (no antibody) was subtracted from that of Fc2, Fc3 and Fc4 to correct for differences in non-specific binding to a reference surface. A 5 point 2-fold dilution range from 3.125 to 50 nM CEACAM1 without regeneration between each concentration was used.

His-tagged CEACAM1 [2] = target: T1, His-tagged CEACAM1; experiment: SPR single-cycle, supernatant IgG captured
Experimental: In order to assess the binding of the humanized, affinity matured reformatted lead IgGs, single-cycle kinetics analysis was performed on crude supernatants using a Biacore T200 running Biacore T200 Control Software V2.0.1 and Biacore T200 Evaluation Software V3.0. Antibodies were diluted in HBS-P+ to a final concentration of 0.5 μg/ml. At the start of each cycle, antibodies were loaded onto Fc2, Fc3 and Fc4 of the Protein A chip. IgGs were captured at a flow rate of 10 μl/min to give an immobilisation level (RL) of ˜100 RU (a level calculated to obtain a Rₘₐₓ of ˜50-150 RU once the analyte is bound). The surface was then allowed to stabilize. Single-cycle kinetics data was obtained with CEACAM1 as the analyte at a flow rate of 80 μl/min to minimize any potential mass transfer effects. Multiple repeats with the parent (VH1/Vκ8 S29A) antibody were performed to check the stability of the surface and analyte over the kinetic cycles. The signal from the reference channel Fc1 (no antibody) was subtracted from that of Fc2, Fc3 and Fc4 to correct for differences in non-specific binding to the reference surface. A three point, two-fold dilution range from 70 nM to 280 nM CEACAM1 without regeneration between each concentration was used. The signal from each antibody blank run (no CEACAM1) was subtracted to correct for differences in surface stability. The association phase for the three injections of increasing concentrations of CEACAM1 was monitored for 80 seconds each time and a single dissociation phase was measured for 150 seconds following the last injection of CEACAM1. Regeneration of the Protein A surface was conducted using two injections of 10 mM glycine-HCL pH 1.5 followed by a stabilization period of 250 seconds.

B1: VH1/Vκ0 (antibody, IgG4, V domains shown)
VH: EVQLLESGGGLVQPGGSLRLSCAASGFIFSSHGMSWVRQAPGKGLEWVATISSGGTYTYYPDSVKGRFTISRDNSKNTLYLQMNSLKAEDTAMYYCARHDFDYDAAWFAYWGQGTLVTVSS
VL: QIVLTQSPALMSASPGVKVTMTCSANSSVSYMYWYRQKPRSSPKPWIYLTSNLASGVPARFSGSGSGTSYSLTISSMEAEDAATYYCQQWSSNPPTFGSGTKLEIK
notes: IgG4 (S241P), kappa; also called VH1/Vκ0 (control)
His-tagged CEACAM1 [1]
  Kd: 64 nM
  relative KD to VH0/Vκ0: 1.5

B2: VH0/Vκ1 (antibody, IgG4, V domains shown)
VH: EVQLVESGGDLVKPGGSLKLACAASGFIFSSHGMSWVRQTPDKRLEWVATISSGGTYTYYPDSVKGRFTISRDNDKNTLYLQMNSLKSEDTAMYYCARHDFDYDAAWFAYWGQGTLVTVSS
VL: QIVLTQSPALLSLSPGERATMSCSANSSVSYMYWYRQKPGQAPKPWIYLTSNLASGVPARFSGSGSGTDYTLTISSLEAEDFATYYCQQWSSNPPTFGQGTKLEIK
notes: IgG4 (S241P), kappa; also called VH0/Vκ1 (control)
His-tagged CEACAM1 [1]
  Kd: 49 nM
  relative KD to VH0/Vκ0: 1.2

B3: VH2/Vκ6 (antibody, IgG4, V domains shown)
VH: EVQLLESGGGLVQPGGSLRLSCAASGFIFSSHGMSWVRQAPGKGLEWVATISSGGTYTYYPDSVKGRFTISRDNSKNTLYLQMNSLRAEDTAMYYCARHDFDYDAAWFAYWGQGTLVTVSS
VL: DIQLTQSPSFLSASVGDRVTITCRANSSVSYMAWYQQKPGKAPKLLIYLTSNLQSGVPSRFSGSGSGTEFTLTISSLQPEDFATYYCQQWSSNPPTFGQGTKLEIK
notes: IgG4 (S241P), kappa
His-tagged CEACAM1 [1]
  binding result: no binding (tested: 50 nM)

B4: 9B3_9E5/CP08F05 (antibody, IgG4, V domains shown)
VH: EVQLLESGGGLVQPGGSLRLSCAASGFTFNAHAISWVRQAPGKGLEWVATISSGGTYTYYPDSVKGRFTISRDNSKNTLYLQMNSLKAEDTAMYYCARHGFDYDAAWFAYWGQGTLVTVSS
VL: EIVLTQSPATLSLSPGERATLSCRANSAVSYMYWYQQKPGQAPRPWIYLTSNRATGVPARFSGSGSGTDYTLTISSLEPEDFAVYYCQQWTSNPPTFGQGTKLEIK
notes: IgG4 (S241P), kappa
His-tagged CEACAM1 [2]
  Kd: 95 nM
  koff: 0.012 s⁻¹
  kon: 130000 M⁻¹ s⁻¹
  relative KD to parent: 5.9

B5: 9B3_9E5_8H3/CP08E05 (antibody, IgG4, V domains shown)
VH: EVQLLESGGGLVQPGGSLRLSCAASGFTFNAHAISWVRQAPGKGLEWVATISSGGTYTYYPDSVKGRFTISRDNSKNTLYLQMNSLKAEDTAMYYCARHGFDYFPYWFAHWGQGTLVTVSS
VL: EIVLTQSPATLSLSPGERATLSCRANSAVSYMYWYQQKPGQAPRPWIYLTSNRATGVPARFSGSGSGTDYTLTISSLEPEDFAVYYCQQWTTNPPTFGQGTKLEIK
notes: IgG4 (S241P), kappa
His-tagged CEACAM1 [2]
  Kd: 270 nM
  koff: 0.022 s⁻¹
  kon: 82000 M⁻¹ s⁻¹
  relative KD to parent: 1.9

B6: 9B3_9E5/Vκ8 S29A (antibody, IgG4, V domains shown)
VH: EVQLLESGGGLVQPGGSLRLSCAASGFTFNAHAISWVRQAPGKGLEWVATISSGGTYTYYPDSVKGRFTISRDNSKNTLYLQMNSLKAEDTAMYYCARHGFDYDAAWFAYWGQGTLVTVSS
VL: EIVLTQSPATLSLSPGERATLSCRANSAVSYMYWYQQKPGQAPRPWIYLTSNRATGVPARFSGSGSGTDYTLTISSLEPEDFAVYYCQQWSSNPPTFGQGTKLEIK
notes: IgG4 (S241P), kappa
His-tagged CEACAM1 [2]
  Kd: 150 nM
  koff: 0.021 s⁻¹
  kon: 140000 M⁻¹ s⁻¹
  relative KD to parent: 3.8

B7: 8H3_9E5/CP08E05 (antibody, IgG4, V domains shown)
VH: EVQLLESGGGLVQPGGSLRLSCAASGFIFSSHGMSWVRQAPGKGLEWVATISSGGTYTYYPDSVKGRFTISRDNSKNTLYLQMNSLKAEDTAMYYCARHGFDYFPYWFAHWGQGTLVTVSS
VL: EIVLTQSPATLSLSPGERATLSCRANSAVSYMYWYQQKPGQAPRPWIYLTSNRATGVPARFSGSGSGTDYTLTISSLEPEDFAVYYCQQWTTNPPTFGQGTKLEIK
notes: IgG4 (S241P), kappa
His-tagged CEACAM1 [2]
  Kd: 320 nM
  koff: 0.025 s⁻¹
  kon: 79000 M⁻¹ s⁻¹
  relative KD to parent: 1.8

B8: 8H3_9E5/Vκ8 S29A (antibody, IgG4, V domains shown)
VH: EVQLLESGGGLVQPGGSLRLSCAASGFIFSSHGMSWVRQAPGKGLEWVATISSGGTYTYYPDSVKGRFTISRDNSKNTLYLQMNSLKAEDTAMYYCARHGFDYFPYWFAHWGQGTLVTVSS
VL: EIVLTQSPATLSLSPGERATLSCRANSAVSYMYWYQQKPGQAPRPWIYLTSNRATGVPARFSGSGSGTDYTLTISSLEPEDFAVYYCQQWSSNPPTFGQGTKLEIK
notes: IgG4 (S241P), kappa
His-tagged CEACAM1 [2]
  Kd: 300 nM
  koff: 0.024 s⁻¹
  kon: 81000 M⁻¹ s⁻¹
  relative KD to parent: 1.9

B9: 9B3_9E5_8H3/CP08F05 (antibody, IgG4, V domains shown)
VH: EVQLLESGGGLVQPGGSLRLSCAASGFTFNAHAISWVRQAPGKGLEWVATISSGGTYTYYPDSVKGRFTISRDNSKNTLYLQMNSLKAEDTAMYYCARHGFDYFPYWFAHWGQGTLVTVSS
VL: EIVLTQSPATLSLSPGERATLSCRANSAVSYMYWYQQKPGQAPRPWIYLTSNRATGVPARFSGSGSGTDYTLTISSLEPEDFAVYYCQQWTSNPPTFGQGTKLEIK
notes: IgG4 (S241P), kappa
His-tagged CEACAM1 [2]
  Kd: 210 nM
  koff: 0.018 s⁻¹
  kon: 86000 M⁻¹ s⁻¹
  relative KD to parent: 2.4

B10: 9B3_9E5_8H3/Vκ8 S29A (antibody, IgG4, V domains shown)
VH: EVQLLESGGGLVQPGGSLRLSCAASGFTFNAHAISWVRQAPGKGLEWVATISSGGTYTYYPDSVKGRFTISRDNSKNTLYLQMNSLKAEDTAMYYCARHGFDYFPYWFAHWGQGTLVTVSS
VL: EIVLTQSPATLSLSPGERATLSCRANSAVSYMYWYQQKPGQAPRPWIYLTSNRATGVPARFSGSGSGTDYTLTISSLEPEDFAVYYCQQWSSNPPTFGQGTKLEIK
notes: IgG4 (S241P), kappa
His-tagged CEACAM1 [2]
  Kd: 210 nM
  koff: 0.02 s⁻¹
  kon: 95000 M⁻¹ s⁻¹
  relative KD to parent: 2.4

B11: 8H3_9E5/CP08F05 (antibody, IgG4, V domains shown)
VH: EVQLLESGGGLVQPGGSLRLSCAASGFIFSSHGMSWVRQAPGKGLEWVATISSGGTYTYYPDSVKGRFTISRDNSKNTLYLQMNSLKAEDTAMYYCARHGFDYFPYWFAHWGQGTLVTVSS
VL: EIVLTQSPATLSLSPGERATLSCRANSAVSYMYWYQQKPGQAPRPWIYLTSNRATGVPARFSGSGSGTDYTLTISSLEPEDFAVYYCQQWTSNPPTFGQGTKLEIK
notes: IgG4 (S241P), kappa
His-tagged CEACAM1 [2]
  Kd: 280 nM
  koff: 0.028 s⁻¹
  kon: 77000 M⁻¹ s⁻¹
  relative KD to parent: 2

B12: VH1/Vκ6 (antibody, IgG4, V domains shown)
VH: EVQLLESGGGLVQPGGSLRLSCAASGFIFSSHGMSWVRQAPGKGLEWVATISSGGTYTYYPDSVKGRFTISRDNSKNTLYLQMNSLKAEDTAMYYCARHDFDYDAAWFAYWGQGTLVTVSS
VL: DIQLTQSPSFLSASVGDRVTITCRANSSVSYMAWYQQKPGKAPKLLIYLTSNLQSGVPSRFSGSGSGTEFTLTISSLQPEDFATYYCQQWSSNPPTFGQGTKLEIK
notes: IgG4 (S241P), kappa
His-tagged CEACAM1 [1]
  binding result: no binding (tested: 50 nM)

B13: 8H3_9C2/Vκ8 S29A (antibody, IgG4, V domains shown)
VH: EVQLLESGGGLVQPGGSLRLSCAASEFTFSDHAMSWVRQAPGKGLEWVATISSGGTYTYYPDSVKGRFTISRDNSKNTLYLQMNSLKAEDTAMYYCARHGFDYFPYWFAHWGQGTLVTVSS
VL: EIVLTQSPATLSLSPGERATLSCRANSAVSYMYWYQQKPGQAPRPWIYLTSNRATGVPARFSGSGSGTDYTLTISSLEPEDFAVYYCQQWSSNPPTFGQGTKLEIK
notes: IgG4 (S241P), kappa
His-tagged CEACAM1 [2]
  Kd: 110 nM
  koff: 0.0071 s⁻¹
  kon: 65000 M⁻¹ s⁻¹
  relative KD to parent: 5.1
